From the DeepSol protein solubility set

Assay: soluble on expression in E. coli; label from the status in PepcDB or PDB records
With “GSNSLMERIHEQIKKGELALFYLQEQINHFEEKPTKEMKDKIVAEMDTIIAMIDGVRGVLDRLMQRKDLDIFEQYNLEMAKKSGDILERDLKKEEARVKKIEV” the “soluble on expression in E. coli” value was “soluble”. In the case of “GSPAAAPPTLPPYFMKGSIIQLANGELKKVEDLKTEDFIQSAEISNDLKIDSSTVERIEDSHSPGVAVIQFAVGEHRAQVSVEVLVEYPFFVFGQGWSSCCPERTSQLFDLPCSKLSVGDVCISLTLKNLKNG”, the “soluble on expression in E. coli” value is reported as “soluble”. For “GSPGILMASQGTKRSYEQMETGGERQNATEIRASVGRMVGGIGRFYIQMCTELKLSDQEGRLIQNSITIERMVLSAFDERRNRYLEEHPSAGKDPKKTGGPIYRRRDGKWVRELILYDKEEIRRIWRQANNGEDATAGLTHMMIWHSNLNDATYQRTRALVRTGMDPRMCSLMQGSTLPRRSGAAGAAIKGVGTMVMELIRMIKRGINDRNFWRGENGRRTRIAYERMCNILKGKFQTAAQKAMMDQVRESRNPGNAEIEDLIFLARSALILRGSIAHKSCLPACVYGLAVASGYDFEREGYSLVGIDPFRLLQNSQVFSLIRPNENPAHKSQLVWMACHSAAFEDLRVSSFIRGTRVIPRGQLSTRGVQIASNENVEAMDSSTLELRSRYWAIRTRSGGNTNQQRASAGQISVQPTFSVQRNLPFERATIMAAFKGNTEGRTSDMRTEIIRMMESARPEDVSFQGRGVFELSDEKATNPIVPSFDMSNEGSYFFGDNAEEYDN”, the “soluble on expression in E. coli” value was “soluble”. For “GSPHMLSGSGLCNSSSALPLYNQQVGDCCIIRVSLDVDNGNMYKSILVTSQDKAPAVIRKAMDKHNLEEEEPEDYELLQILSDDRKLKIPENANVFYAMNSTANYDFVLKKRTFT”, the “soluble on expression in E. coli” value was “soluble”. With “GSPQAHPVPKDARITHSSGQSFEQMRQECLQRGTLFEDADFPASNSSLFYSERPQIPFVWKRPGEIVKNPEFILGGATRTDICQGELGDCWLLAAIASLTLNQKALARVIPQDQSFGPGYAGIFHFQFWQHSEWLDVVIDDRLPTFRDRLVFLHSADHNEFWSALLEKAYAKLNGSYEALKGGSAIEAMEDFTGGVAETFQTKEAPENFYEILEKALKRGSLLGCFIDTRSAAESEARTPFGLIKGHAYSVTGIDQVSFRGQRIELIRIRNPWGQVEWNGSWSDSSPEWRSVGPAEQKRLCHTALDDGEFWMAFKDFKAHFDKVEICNLTPDA” the “soluble on expression in E. coli” value was “soluble”. For “GSSTVTLPETLLFVSTLDGSLHAVSKRTGSIKWTLKEDPVLQVPTHVEEPAFLPDPNDGSLYTLGSKNNEGLTKLPFTIPELVQASPCRSSDGILYMGKKQDIWYVIDLLTGEKQQTLSSAFADSLSPSTSLLYLGRTEYTITMYDTKTRELRWNATYFDYAASLPEDDVDYKMSHFVSNGDGLVVTVDSESGDVLWIQNYASPVVAFYVWQREGLRKVMHINVAVETLRYLTFMSGEVGRITKWKYPFPKETEAKSKLTPTLYVGKYSTSLYASPSMVHEGVAVVPRGSTLPLLEGPQTDGVTIGDKGESVITPSTDVKFDPGLKSKNKLNYLRNYWLLIGHHETPLSASTKMLERFPNNLPKHRENV”, the “soluble on expression in E. coli” value was “soluble”. For “GSVASVHASISGSSASSTSSTPEVKPLKSLLGDSAPTLHLNKGMAILFAVVARGTTILAKHAWCGGNFLEVTEQILAKIPSENNKLTYSHGNYLFHYICQDRIVYLCITDDDFERSRAFSFLNEVKKRFQTTYGSRAQTALPYAMNSEFSSVLAAQLKHHSENHHHHHH”, the “soluble on expression in E. coli” value was “soluble”. In the case of “GSVDIEVQDLEEFALRPAPQGITIKCRITRDKKGMDRGMFPTYFLHLDREDGKKVFLLAGRKRKKSKTSNYLISVDPTDLSRGGDSYIGKLRSNLMGTKFTVYDNGVNPQKASSSTLESGTLRQELAAVCYETNVLGFKGPRKMSVIVPGMNMVHERVCIRPRNEHETLLARWQNKNTESIIELQNKTPVWNDDTQSYVLNFHGRVTQASVKNFQIIHGNDPDYIVMQFGRVAEDVFTMDYNYPLCALQAFAIALSSFDSKLACE”, the “soluble on expression in E. coli” value is reported as “soluble”. For “GSYAEGQRKRRNTIHEFKKSAKTTLIKIDPALKIKTKKVNTADQCANRCTRNKGLPFTCKAFVFDKARKQCLWFPFNSMSSGVKKEFGHEFDLYENKDYIRNCIIGEGESYKGTVSITKSGIKCQPWSSMIPHEHSFLPSSYRGKDLQENYCRNPRGEEGGPWCFTSNPEVRYEVCDIPQCSEVECMTANGESYRGLMDHTESGKICQRWDHQTPHRHKFLPERYPDKGFDDNYCRNPDGQPRPWCYTLDPHTRWEYCAIKTCA”, the “soluble on expression in E. coli” value was “soluble”. In the case of “GSYHADPSLVSFLTGLGCPNCIEYFTSQGLQSIYHLQNLTIEDLGALKIPEQYRMTIWRGLQDLKQGHDYSTAQQLLRSS”, the “soluble on expression in E. coli” value is reported as “soluble”. For “GTGTRFGTDLAKEAKKVHQTTRTVPAKRGTIYDRNGVPIAEDATSYNVYAVIDENYKSATGKILYVEKTQFNKVAEVFHKYLDMEESYVREQLSQPNLKQVSFGAKGNGITYANMMSIKKELEAAEVKGIDFTTSPNRSYPNGQFASSFIGLAQLHENEDGSKSLLGTSGMESSLNSILAGTDGIITYEKDRLGNIVPGTEQVSQRTMDGKDVYTTISSPLQSFMETQMDAFQEKVKGKYMTATLVSAKTGEILATTQRPTFDADTKEGITEDFVWRDILYQSNYEPGSTMKVMMLAAAIDNNTFPGGEVFNSSELKIADATIRDWDVNEGLTGGRMMTFSQGFAHSSNVGMTLLEQKMGDATWLDYLNRFKFGVPTRFGLTDEYAGQLPADNIVNIAQSSFGQGISVTQTQMIRAFTAIANDGVMLEPKFISAIYDPNDQTARKSQKEIVGNPVSKDAASLTRTNMVLVGTDPVYGTMYNHSTGKPTVTVPGQNVALKSGTAQIADEKNGGYLVGLTDYIFSAVSMSPAENPDFILYVTVQQPEHYSGIQLGEFANPILERASAMKDSLNLQTTAKALEQVSQQSPYPMPSVKDISPGDLAEELRRNLVQPIVVGTGTKIKNSSAEEGKNLAPNQQVLILSDKAEEVPDMYGWTKETAETLAKWLNIELEFQGSGSTVQKQDVRANTAIKDIKKITLTLGD”, the “soluble on expression in E. coli” value was “soluble”. For “GVALGATRVIYPAGQKQVQLAVTNNDENSTYLIQSWVENADGVKDGRFIVTPPLFAMKGKKENTLRILDATNNQLPQDRESLFWMNVKAIPSMDKSKLTENTLQLAIISRIKLYYRPAKLALPPDQAAEKLRFRRSANSLTLINPTPYYLTVTELNAGTRVLENALVPPMGESAVKLPSDAGSNITYRTINDYGALTPKMTGVME”, the “soluble on expression in E. coli” value was “soluble”. With “GVKLQQSGPEVVKPGASVKISCKASGYSFTNFYIHWVKQRPGQGLEWIGWIFHGSDNTEYNEKFKDKATLTADTSSSTAYMQLSSLTSEDSAVYFCARWGPHWYFDVWGQGTTVTVSSAKTTPPSVYPLAPGNSMVTLGCLVKGYFPEPVTVTWNSGSLSSGVHTFPAVLQSDLYTLSSSVTVPSSTWPSETVTCNVAHPASSTKVDKKIAAAG” the “soluble on expression in E. coli” value was “soluble”. In the case of “GVNSVAARVTELTGREVAAVAERGHSHRWHLYRVELADGTPLFVKALPDDAPALDGLFRAEALGLDWLGRSFGSPVPQVAGWDDRTLAMEWVDERPPTPEAAERFGHQLAAMHLAGAESFGATWDGYIGPLPMDNTPRSTWPEFYAEQRILPYLRRAADRGALTPGDVRLVEKVLDALDHLAGDPEPPARIHGDLWNGNVLWQDDGAVVIDPAAHGGHREADLAMLALFGLPYLDRVRDAYNEVAPLAEGWRARIPLHQLHPLLVHVCLFGAAYRTTLVDTARAALRA”, the “soluble on expression in E. coli” value is reported as “soluble”. With “GVSTAVAQDFTIAAKHAIAVEANTGKILYEKDATQPVEIASITKLITVYLVYEALENGSITLSTPVDISDYPYQLTTNSEASNIPMEARNYTVEELLEATLVSSANSAAIALAEKIAGSEKDFVDMMRAKLLEWGIQDATVVNTTGLNNETLGDNIYPGSKKDEENKLSAYDVAIVARNLIKKYPQVLEITKKPSSTFAGMTITSTNYMLEGMPAYRGGFDGLKTGTTDKAGESFVGTTVEKGMRVITVVLNADHQDNNPYARFTATSSLMDYISSTFTLRKIVQQGDAYQDSKAPVQDGKEDTVIAVAPEDIYLIERVGNQSSQSVQFTPDSKAIPAPLEAGTVVGHLTYEDKDLIGQGYITTERPSFEMVADKKIEK” the “soluble on expression in E. coli” value was “soluble”. For “GVVGSDARSRGRVPGYASSSLYRESGIISARQLALLQRMLPRLRLEQLFRCEWLQQRLARGLALGREEVRQILLCAAQDDDGWCAELGDRVNLAVPQSMIDWVLLPVYGWWESLLDQAIPGWRLSLVELETQSRQLRIKSEFWSRVAELEPEQAREELARVAKCQARTQEQVAELAGKLETASALAKSAWPNWQRGMATLLASGGLAGFEPIPEVLECLWQPLCRLDDDVGAADAVQAWLHERNLCQAQDHFYWQS”, the “soluble on expression in E. coli” value was “soluble”.
